Measurements from the supplement of paper PMC9170038.

Tested on: MS2 coat protein
Experiment: apparent KD of MS2 coat protein; designed switch direction (-1 OFF switch, 1 ON switch): 1; higher = weaker reporter binding
Summary of the method: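 For each design, the apparent KD is the median over clusters of curves fitted to normalised cluster fluorescence. Clusters held RNA switches with common flanks, transcribed on Illumina chips by stalled E. coli RNA polymerase. These were titrated with SNAP-549-labelled MS2 coat protein, doubling from 0.7 or 1.5 nM to 3 µM, without input, with 200 uM small-molecule ligand, or with an oligonucleotide input.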

[1] = input ligand: microRNA oligo, concentration not stated
[2] = Eterna round: R95, input ligand: FMN 200 uM
[3] = Eterna round: R95, input ligand: microRNA oligo, concentration not stated
[4] = Eterna round: R95, input ligand: none

| Sequence | apparent KD of MS2 coat protein (input ligand: FMN 200 uM) | apparent KD of MS2 coat protein [1] | apparent KD of MS2 coat protein (input ligand: none) | apparent KD of MS2 coat protein [2] | apparent KD of MS2 coat protein [3] | apparent KD of MS2 coat protein [4] |
| --- | --- | --- | --- | --- | --- | --- |
| GGUGCGAAUAAAGCCUACAUGAGGAUCACCCAUGUAUGUAGGCAGGAUAUCGUUUGCAAAGCAAACGAGAAGGGCUGACGCACC [Mat - Same State NG 3 - JL Mod - D49] (Eterna round: R96, puzzle: Same State NG 3) | 29.3 nM | 45.7 nM | 62.4 nM |  |  |  |
| GUAAAACAUGAGGAUCACCCAUGUAAUAAUAUGGGAGGAUAUCAGAAUGUAUGUAUGUAAUGAGAAGGCCUAAAUU [Mat - Same State 1 - Mod of Eli - D75] (puzzle: Same State 1) |  |  |  | 73.4 nM | 610 nM | 695 nM |
| GUAAAACAUGAGGAUCACCCAUGUCAAUGUAGUCGAGGAUAUGGGUAGCUAUGAGGCGUACUAGAAGGCGAAAAGU [Mat - Same State 1 - Mod of JL - D18] (puzzle: Same State 1) |  |  |  | 91.8 nM | 85.5 nM | 248 nM |
| GUAACAUGACGAGGAUAUGGAACAUGAGGAUCACCCAUGUAUGUUCCAUAACGCGAAUAAAGAAUCCAGAAGGCGUCGUGAAAU [Mat - Same State NG 2 - JL mod - D33] (Eterna round: R96, puzzle: Same State NG 2) | 22.1 nM | 118 nM | 120 nM |  |  |  |
| GUAAGGCAAGCUUUUUUCUCGUAGUGUAAACAUGAGGAUCACCCAUGUGCUCGCCCUGGACCUUUGGAUCGCAGAAA [Tiesmain] (puzzle: Sensor for hsa-mir-208a) |  |  |  | 36.4 nM | 22.2 nM | 46.3 nM |
| GUAAUCGUUAUAGGAUAUCAUGAGGAUUACCCAUGAGAAGGGUGAUCUCGAUCCAUAUUCAGAAAAUGAAUGUGGAUAGAUUGC [Omei NG1 A v2] (Eterna round: R96, puzzle: Same State NG 1) | 1010 nM | 292 nM | 1150 nM |  |  |  |
| GUACUACAUGAGGAUCACCCAUGUACGCCAGUACGAGGAUAUGCAUGGGCGCUAGCUGGUGCAGAAGGCGUAGUGC [Pin2Pin #6] (puzzle: Same State 1) |  |  |  | 21 nM | 24 nM | 45.5 nM |
| GUAGAUAUAAAGGAGGAUAUUCAAUGAGAGACAUGAGGAUCACCCAUGUGAGAGUGAGAUGAUAGGAAGAAGGCUUAGAGAGAUG [Altered State 2-6 - Jieux - Same State 2] (puzzle: Same State 2) |  |  |  | 64.1 nM | 54.9 nM | 72 nM |
| GUAGAUAUAGAGGAGGAUAUUCAAUGAGGAACAUGAGGAUCACCCAUGUAAGAGAGAGAUGAUGAGAAGAAGGCUUAGAGGGAUG [Altered State 2-3 - Jieux - Same State 2] (puzzle: Same State 2) |  |  |  | 46.5 nM | 84.6 nM | 62 nM |
| GUAGCAGGCACAGGAUAUGUUGACCAGGGAGUACAUGAGGAUCACCCAUGUCCGACACACCGGCAAUAGAAGGGUGAGUGGCAG [Eternabot solution 17] (Eterna round: R96, puzzle: Same State NG 2) | 35.8 nM | 44.9 nM | 78.1 nM |  |  |  |
| GUAGCAUACCGAGGAUAUUCACAUGAGGAUCACCCAUGUAUUAAUAGGCCACAUUAGUGGCCUUGGGAGAAGGCGGAAUGCUAC [Xeonanis - 20 Mod48] (Eterna round: R96, puzzle: Same State NG 2) | 10.8 nM | 11 nM | 14.6 nM |  |  |  |
| GUAGCAUACCGAGGAUAUUCAUAUAAUAAAUACAUGAGGAUCACCCAUGUAAGGCGAAAGCCUUGGGAGAAGGCGGAAUGCUAC [Xeonanis - 20 Mod59] (Eterna round: R96, puzzle: Same State NG 2) | 12.6 nM | 31.9 nM | 36.3 nM |  |  |  |
| GUAGCAUACCGAGGAUAUUCAUAUAAUAAAUACAUGAGGAUCACCCAUGUUAGGCGAAAGCCUUGGGAGAAGGCGGAAUGCUAC [Xeonanis - 20 Mod58] (Eterna round: R96, puzzle: Same State NG 2) | 14.4 nM | 35.8 nM | 44.8 nM |  |  |  |
| GUAGCAUACCGAGGAUAUUCAUAUAAUAUACAUGAGGAUCACCCAUGUUAUAGGCGAAAGCCUUGGGAGAAGGCGGAAUGCUAC [Xeonanis - 20 Mod62] (Eterna round: R96, puzzle: Same State NG 2) | 8.73 nM | 15.3 nM | 14.9 nM |  |  |  |
| GUAGCAUACCGAGGAUAUUCAUAUUAAACAUGAGGAUCACCCAUGUAUUAGGCCAAAAGGCCUUGGGAGAAGGCGGAAUGCUAC [Xeonanis - 20 Mod5] (Eterna round: R96, puzzle: Same State NG 2) | 24.6 nM | 28.3 nM | 48.3 nM |  |  |  |
| GUAGCAUACCGAGGAUAUUCAUAUUACAUGAGGAUCACCCAUGUUUUAGGCCGAUUACGGCCUUGGGAGAAGGCGGAAUGCUAC [Xeonanis - 20 Mod23] (Eterna round: R96, puzzle: Same State NG 2) | 13.8 nM | 20.1 nM | 28.8 nM |  |  |  |
| GUAGCAUGCAGGCAGGAUAUUCAUAUUAAAACAUGAGGAUCACCCAUGUAGGCCAGAAGGCCUUGGGAGAAGGGCCACAUGCUAC [Xeonanis - 17] (puzzle: Same State 2) |  |  |  | 36.9 nM | 595 nM | 800 nM |
| GUCAGCGAUUGAGGAUAUCACGUCGAUUAGACGUGAGAAGGCGAUCAUAACAUGAGGAUCACCCAUGUAUUACAUGAAGCUGAC [SSNG1/5-A2] (Eterna round: R96, puzzle: Same State NG 1) | 19.6 nM | 17.5 nM | 27.1 nM |  |  |  |
| GUCCAAAACACAGGAUAUCCCAGUCAUGAACUGGGAGAAGGGUGGCCACAUGAGGAUCACCCAUGUGAAGUGCGAGAGGCACGA [Arquarais] (Eterna round: R96, puzzle: Same State NG 1) | 253 nM | 595 nM | 937 nM |  |  |  |
| GUCCGUAUCACAGGAUAUCCUAGUCAUGAUCUAGGAGAAGGGUGGCCACAUGAGGAUCACCCAUGUGAAGUGCCAGAGGCACGA [MOD2 Xexeraed] (Eterna round: R96, puzzle: Same State NG 1) | 687 nM | 64.8 nM | 149 nM |  |  |  |
| GUGCUCGUGUGAGGAUAUGUUGCCGGGUCGGCUGCAGAAGGUACUAUUAUACAUGAGGAUCACCCAUGUCGCUUUUCUCCGGUA [salish99_SSNG1_r04_921] (Eterna round: R96, puzzle: Same State NG 1) | 88 nM | 49.6 nM | 73.5 nM |  |  |  |
| GUGGAGGGUUGAGGAUAUUGGUUGCAUAUGUUUAACAUGAGGAUCACCCAUGUGGGUUGCGGUUUCGAGAAGGUAGGUUGCUGG [salish99_SSNG2_r04_043] (Eterna round: R96, puzzle: Same State NG 2) | 90.8 nM | 82.2 nM | 75.2 nM |  |  |  |
| GUGGUCAGACAUGAGGAUCACCCAUGUGGAAUAAAUAAGGACUAGGAUAUGGAAUAUAGGAUAUACCAGAAGGAGUGGUUGGUG (Eterna round: R96, puzzle: Same State NG 3) |  | 36.5 nM |  |  |  |  |
